Experimental data: the DeepSol protein solubility set

Test: soluble on expression in E. coli; label from the status in PepcDB or PDB records

Sequence | soluble on expression in E. coli
MGSDKIHHHHHHMDSIQESDVLNAVKTKLPPCCLRIFRNKIILVGTYDLDKSTGYRSGSLDVFTMDLKLLCSNNTYGAILDLKLSPFDDTLICTAHSTGNIMLWRIRCTDKDDFQSNELDIHAIANLQLFEKDVLIASCHFSPLDCKKLLVTNTAGEAATIDIRTLSVQFTASAIAQAYSKLDKIDYEVQGATEKVIHVESGQFLKPHELECWTAEFGSLQPFQDVVFTGGDDSRIMAHDLRSKEFIWSNNRIHDAGVVSIKCSQPNFRNNKPTSIITGSYDDNIRSLDLRMMGESIFPGANVPTVNKLACDLGGGVWRFVESPIDQEQSHHNGSDRLLVCCMYNGAKVVTMNDNSDEYFQIQHYLKKGHDSMCYGGDWSNSLIATCSFYDNSLQTWIV | not soluble
MGSDKIHHHHHHMKAYLVGLYTLTPTHPGSGTELGVVDQPIQRERHTGFPVIWGQSLKGVLRSYLKLVEKVDEEKINKIFGPPTEKAHEQAGLISVGDAKILFFPVRSLKGVYAYVTSPLVLNRFKRDLELAGVKNFQTEIPELTDTAIASEEITVDNKVILEEFAILIQKDDKGILESVVKAIEQAFGNEMAEKIKGRIAIIPDDVFRDLVELSTEIVARIRINAETGTVETGGLWYEEYIPSDTLFYSLILVTPRAKDNDMALIKEVLGKINGKYLQIGGNETVGKGFVKVTLKEVTNNGGTHAK | not soluble
MGSDKIHHHHHHVRIESIRTKNFKILKDTTIRNIPAMAIFLGANGSGKSTFFDIFGFLHDCLTDNVRAALLKRGGFKEVVSRGQSGPIEFEIKFRSAPGEPLVTYELHINLDDKGLPIVSKELLKYRRGQKGRPWHFLDFSNGVGHAIVNESEYGKPGVQEAREQQTLDSPDILAIKGLGQFQKYKQIASFRRLIEGWHVSDFRIESARSTNDAGYAEHLSATGDNLALVTQFMHEHYSDRFQQVLEKIAQRVPGIKSVEAKETADGRIVLRFQNEEFKDPFISRYVSDGTLKMFAYLILLYDPTPHPLLCIEEPENQLHPDLLLELAEEFRAYASNGGQVFISTHSPDFVNAVQLEELFWLCQGNNGFSKVVRASDEPLLQSLVAEGDLPGSLWKQGFFEGAGPL | not soluble
MGSDKIHHHHHHMNILLVDDDRFIIEALREKINWAKLHIDIVYVAYSLTQAQNIIREHPIDLMISDIEMPQGSGLELLSWIRNEKYDIKTIFLTNYADFNYAQKAIELQSFEYYLKPINFEKLEFIIQKAISKIENHNLNGKNDSLLQIEDNFWYDYLRKPQISRIDELENIASKQDFILKQHQYFFLAVLTINLNEEDYSVETPSWTSQLKRELQRISQPSYKLISLFKMESQVDQYVCLFRVDSSKRSDKLAYEIHSQISNNFSKYSNIIYKSCHKISDILFHTKELYTYNEQYVSYWNTITCVPHSFPTSFKTETLSITFLDTLSEYELREKINSLAYNSQIPTFTLQQILLDWTQQIGIYLDQNGISAHKLFQNSTHDFLFQRRFHSIESFQDYFDYYWSHAKKFATNIENQKNSIQRIVEYIDHHYYEDINRSILADVVYLSADHLARIFKKETGETLVKYITDKRINAAKSLLSQTNISISQVSCQVGYDNYSYFTKIFKQRTGLSPGDYRKTYQNKM | not soluble
DEYLENLTDTPKHSKAYPIIKFEFTGRSVDAPLLSQASKKFGVELSILTSQIDYAGGVKFGYTIAEVEGDEDAITQTKVYLMENNVRVEVLGYVQ | not soluble
VDSVYRTRSLGVAAEGIPDQYADGEAARVWQLYIGDTRSRTAEYKAWLLGLLRQHGCHRVLDVACGTGVDSIMLVEEGFSVTSVDASDKMLKYALKERWNRRKEPAFDKWVIEEANWLTLDKDVPAGDGFDAVICLGNSFAHLPDSKGDQSEHRLALKNIASMVRPGGLLVIDHRNYDYILSTGCAPPGKNIYYKSDLTKDITTSVLTVNNKAHMVTLDYTVQVPGAGRDGAPGFSKFRLSYYPHCLASFTELVQEAFGGRCQHSVLGDFKPYRPGQAYVPCYFIHVLKKTG | soluble
MALRNVPFRSEVLGWDPDSLADYFKKLNYKDCEKAVKKYHIDGARFLNLTENDIQKFPKLRVPILSKLSQEINKNEERRSIFTRKPQVPRFPEETESHEEDNGGWSSFEEDDYESPNDDQDGEDDGDYESPNEEEEAPVEDDADYEPPPSNDEEALQNSILPAKPFPNSNSMYIDRPPSGKTPQQPPVPPQRPMAALPPPPAGRNHSPLPPPQTNHEEPSRSRNHKTAKLPAPSIDRSTKPPLDRSLAPFDREPFTLGKKPPFSDKPSIPAGRSLGEHLPKIQKPPLPPTTERHERSSPLPGKKPPVPKHGWGPDRRENDEDDVHQRPLPQPALLPMSSNTFPSRSTKPSPMNPLPSSHMPGAFSESNSSFPQSASLPPYFSQGPSNRPPIRAEGRNFPLPLPNKPRPPSPAEEENSLNEEWYVSYITRPEAEAALRKINQDGTFLVRDSSKKTTTNPYVLMVLYKDKVYNIQIRYQKESQVYLLGTGLRGKEDFLSVSDIIDYFRKMPLLLIDGKNRGSRYQCTLTHAAGYP | soluble
MMAKDFYSAIEDRRSIYAISKEQVVSDEKIQEVIYHAVKHTPSAFNSQSARVVVLLGEQHDKLWDITKETLRKIVPENNFAPTEEKMNAFKSGYGTVLYFEDSEVVESLQANFALYKDNFPTWSQQSSGMLQFAIWTALEIEGFGATLQHYNPLIDEEVRKEWDVPANWKLIAQMPFGKPVVQAGEKEFQPLENRVKIYKLEHHHHHH | soluble
MDCIRVTTIGYYHRDGDMRVTPGLLPKILNRECLKPLREDFFNLNIEVPDSGQGENNMVSFLDYISQTKCLEDAQPDFVTNKQILTALTGNKPFTIHAIHLKGTIFSFKSGEVRYQDTKNFGGAFEHFCTRTRNDEQLETDDTVRKAVFKAEIPRGNTQFYRVLYSGQIDAIDNEVDRKHYELKIMSQGLNEYFWKEKSCKFYWQSVFGNAPVLIIGSRSGQYSTQTTNNYPPYSLYKVEELKRDRIPSMAARCRKIPGRFGPAPPWKISEGEDNALYFLDLVKDNVINDGDCFSFTRTDENPDWDVKRDEESAAQFRDVVLQYLDR | not soluble
MGCSHSKNKNSKSKSAILKKEHPLERSIHHNRVAHFDETQPTSQSTSVESEELNVKHYSKTLLNDTVEPTHQKTSAHVPEKSIKKQEVKQEVKKHETTTVVHTNVHVPKPTHKLPQASEIPIERMGSDPHTAIAPTYQQKQFATSTYYPMPTIGEKQKSPEKAKPARKVDNTDEKKRKKDQNEKPVINGPNVRHQLTPEDLEYIKRSVQQRNERRAFMMAHRNETDDTLYELEVRMPEKDYTNRMEVGQNYRVC | not soluble
MSETPAQCSIKQERISYTPPESPVPSYASSTPLHVPVPRALRMEEDSIRLPAHLRLQPIYWSRDDVAQWLKWAENEFSLRPIDSNTFEMNGKALLLLTKEDFRYRSPHSGDVLYELLQHILKQRKPRILFSPFFHPGNSIHTQPEVILHQNHEEDNCVQRTPRPSVDNVHHNPPTIELLHRSRSPITTNHRPSPDPEQRPLRSPLDNMIRRLSPAERAQGPRPHQENNHQESYPLSVSPMENNHCPASSESHPKPSSPRQESTRVIQLMPSPIMHPLILNPRHSVDFKQSRLSEDGLHREGKPINLSHREDLAYMNHIMVSVSPPEEHAMPIGRIADCRLLWDYVYQLLSDSRYENFIRWEDKESKIFRIVDPNGLARLWGNHKNRTNMTYEKMSRALRHYYKLNIIRKEPGQRLLFRFMKTPDEIMSGRTDRLEHLESQELDEQIYQEDEC | soluble
MSYKIVIDSCGELLDEWKKDPRFESVALTLSVGGENIIDDENFDQASFLKKVADCPECPKSACPSPERYMRAFDCDADHVYAVTLSAELSGSYNSAVLGKSLLQEENPGKQIYVFNSKSASVGQSLIAMKIQECEEAGYSFEKVIETVEAYIADQHTFFVLDNLETLRKNGRLSKVKALVASALKIKPVMGSTDEGAICQLDQARGMNKALVKMAQNIVDKTKDSENKILAISHCNCRERAVLLKNALEERMPVKHIVILDTAGVSSMYANDGGVIVAV | not soluble
MIIKGRAHKFGDDVDTDAIIPGPYLRTTDPYELASHCMAGIDENFPKKVKEGDVIVAGENFGCGSSREQAVIAIKYCGIKAVIAKSFARIFYRNAINVGLIPIIANTDEIKDGDIVEIDLDKEEIVITNKNKTIKCETPKGLEREILAAGGLVNYLKKRKLIQSKKGVKT | soluble
MGSDKIHHHHHHMNAETPQNLMVASLQAPPVRTVVADPQSVHAAIESRFCCREFLADPVERETMERILRVASWAPSGSNNQPWKVYVVQGASRAALSQKVRAAQDALSQDPTLADNYREPYQYYPVEWVSPYIERRRACGFGLYGVLNIARGDRVRMNEQLLRNFDFFGAPVGIFFTNDEILAEGALVDTAMFVQNVMLAARAEGLHTCVQAAWNRFSSVVLPHIGAQGERLVCALALGHADVDAPVNTFRPDRADPASFTAWLD | not soluble
TDESRGKARAAGVESAVLLENKSRLLPLAKEAKIALVGPLATSPDILGGWNVYGEEKDGINVETGLREVFETVEVVSTEYTELSEEDKVAVKAAVQNMDVVVLALGEKNEWGGEAGSLATIRLPEAQYQLAKFVQTLGKPVVITLFNGRPLEVKELAESSDALLELWFPGTEAGRVTADLLSGASNPSGKLSMSFPQTTGQIPVYYNHLRTGRPQTPENKGERYVSHYLDIPNEPFYPFGYGKSYSEF | not soluble
MAHHHHHHMRRYVKPSNIVGANISHPVDIFKMTVEHRVQCGSCHKVRYTRETDCCLSLPIPLDPNLKNSDGNPKQTEEEIFASRPHISLDACLGSLMQATDIDCRCSACGIPVTYCKTTRLRTFPDVLPIFLRRAQFDMETMSVRKLDVFVDVPLELDLEFLRGKGLQSDEVSMPEAREDLPHKPTSSSMKTVDEEALAMLLSMGIEETVARYALLQTGMNAERAVDYVFSRENIAEEAGLAEISTTASESQPVHVLDGPAKYRLHAMISHVGASAKTGHYVCHICDAQTGKWLLFNDEKVAESLNPPFSMAFLYFYKRVGK | soluble
GSHMTIQKVHGREVLDSRGNPTVEVEVTTEKGVFRSAVPSGASTGVYEACELRDGDKKRYVGKGCLQAVKNVNEVIGPALIGRDELKQEELDTLMLRLDGTPNKGKLGANAILGCSMAISKAAAAAKGVPLYRYLASLAGTKELRLPVPCFNVINGGKHAGNALPFQEFMIAPVKATSFSEALRMGSEVYHSLKGIIKKKYGQDAVNVGDEGGFAPPIKDINEPLPILMEAIEEAGHRGKFAICMDCAASETYDEKKQQYNLTFKSPEPTWVTAEQLRETYCKWAHDYPIVSIEDPYDQDDFAGFAGITEALKGKTQIVGDDLTVTNTERIKMAIEKKACNSLLLKINQIGTISEAIASSKLCMENGWSVMVSHRSGETEDTYIADLVVALGSGQIKTGAPCRGERTAKLNQLLRIEEELGAHAKFGFPGWS | soluble
MPSETPQAEVGPTGCPHRSGPHSAKGSLEKGSPEDKEAKEPLWIRPDAPSRCTWQLGRPASESPHHHTPPAKSPKILPDILKKIGDTPMVRINKIGKKFGLKCELLAKCEFFNAGGSVKDRISLRMIEDAERDGTLKPGDTIIEPTSGNTGIGLALAAAVRGYRCIIVMPEKMSSEKVDVLRALGAEIVRTPTNARFDSPESHVGVAWRLKNEIPNSHILDQYRNASNPLAHYDTTADEILQQCDGKLDMLVASVGTGGTITGIARKLKEKCPGCRIIGVDPEGSILAEPEELNQTEQTTYEVEGIGYDFIPTVLDRTVVDKWFKSNDEEAFTFARMLIAQEGLLCGGSAGSTVAVAVKAAQELQEGQRCVVILPDSVRNYMTKFLSDRWMLQKGFLKEEDLTEKKPWWWHLRVQELGLSAPLTVLPTITCGHTIEILREKGFDQAPVVDEAGVILGMVTLGNMLSSLLAGKVQPSDQVGKVIYKQFKQIRLTDTLGRLSHILEMDHFALVVHEQIQYHSTGKSSQRQMVFGVVTAIDLLNFVAAQERDQK | soluble
MASLYLGLGFLVSMHSTKPEKADIIVILGGDDGLRVSKGGDLYKAGYAKHVLLTGIDSRYYRPNHPNWRERKLMARGVPRKHIIVDTWSETSWEEAENTSDLMDKNGWKSALVVSDPPHMLRLNKTWKKAFAGTNKRFRLVATEPSWWNPLLWWRNPISYRFVINELKKNIYYLVTYYLEHHHHHH | not soluble
